{"source": "patent US20140120095A1", "about": "(Boehringer Ingelheim, published 2014)", "key": {"[1]": {"biological_target": "T1, PIGF (UniProt P49763-2 21-149, limits assumed)", "T1 construct": "also called placenta growth factor", "T1 sequence (looked up)": "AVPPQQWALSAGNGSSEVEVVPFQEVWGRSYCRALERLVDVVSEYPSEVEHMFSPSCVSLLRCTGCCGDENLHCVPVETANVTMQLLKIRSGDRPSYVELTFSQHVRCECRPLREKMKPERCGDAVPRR", "assay": "solid phase binding ELISA on coated PIGF (Example 12.8)", "protocol": "(§1) Binding to VEGFB, VEGFC, VEGFD and PIGF is assessed via a solid phase binding ELISA. […] Wells are blocked with a casein solution (1% in PBS). […] As positive controls serial dilutions of the appropriate receptors are taken along and detected with horseradish peroxidase (HRP)-conjugated goat anti-human IgG, Fc specific antibody (Jackson Immuno Research Laboratories Inc., West Grove, Pa., USA) and a subsequent enzymatic reaction in the presence of the substrate TMB (3,3′,5,5′-tetramentylbenzidine) (Pierce, Rockford, Ill., USA)."}, "[2]": {"biological_target": "T2, VEGFD (UniProt O43915 93-201, limits assumed)", "T2 sequence (looked up)": "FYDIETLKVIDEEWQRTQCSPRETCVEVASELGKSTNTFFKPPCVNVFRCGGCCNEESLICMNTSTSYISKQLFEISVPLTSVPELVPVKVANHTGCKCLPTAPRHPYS", "assay": "solid phase binding ELISA on coated VEGF D (Example 12.8)", "protocol": "as §1"}, "[3]": {"biological_target": "T3, VEGFB (UniProt P49765-2 22-188, limits assumed)", "T3 sequence (looked up)": "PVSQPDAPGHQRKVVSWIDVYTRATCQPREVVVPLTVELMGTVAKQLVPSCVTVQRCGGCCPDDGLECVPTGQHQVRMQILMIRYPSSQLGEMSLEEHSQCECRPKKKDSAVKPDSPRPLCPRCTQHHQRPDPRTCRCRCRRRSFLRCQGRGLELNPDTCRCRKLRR", "assay": "binding ELISA on coated VEGFB (Example 12.8), OD 450 nm", "protocol": "as §1"}, "[4]": {"biological_target": "T4, VEGFC (UniProt P49767 103-227, limits assumed)", "T4 sequence (looked up)": "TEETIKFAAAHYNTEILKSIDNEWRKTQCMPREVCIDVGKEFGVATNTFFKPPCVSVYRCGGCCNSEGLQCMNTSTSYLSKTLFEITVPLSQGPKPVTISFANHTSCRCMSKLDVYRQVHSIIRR", "assay": "binding ELISA on coated VEGFC (Example 12.8), OD 450 nm", "protocol": "as §1"}}}
{"binder": "VEGFBII025 (VHH, bivalent (heterodimeric) VHH; also called VEGFBII10E07-40GS-23B04) EVQLVESGGGLVQAGGSLRLSCAASGRTFSNYAMGWFRQAPGKERVLVADISSSGINTYVADAVKGRFTISRDNAKNTVYLQMNSLKPEDTAVYYCAASAWWYSQMARDNYRYWGQGTQVTVSSGGGGSGGGGSGGGGSGGGGSGGGGSGGGGSGGGGSGGGGSEVQLVESGGGLVQTGDSLRLSCEVSGRTFSSYSMGWFRQAQGKEREFVVAISKGGYKYDSVSLEGRFTISKDNAKNTVYLQINSLKPEDTAVYYCASSRAYGSSRLRLADTYEYWGQGTQVTVSS", "values": [{"measurement": "binding result", "setting": "[1]", "result": "no binding (tested: about 5e-7 M)"}, {"measurement": "binding result", "setting": "[2]", "result": "no binding (tested: about 5e-7 M)"}, {"measurement": "binding result", "setting": "[3]", "result": "no binding (tested: 5e-7 M)"}, {"measurement": "binding result", "setting": "[4]", "result": "no binding (tested: 5e-7 M)"}]}
{"binder": "VEGFBII023 (VHH, bivalent (heterodimeric) VHH; also called VEGFBII23B04-40GS-10E07) EVQLVESGGGLVQTGDSLRLSCEVSGRTFSSYSMGWFRQAQGKEREFVVAISKGGYKYDSVSLEGRFTISKDNAKNTVYLQINSLKPEDTAVYYCASSRAYGSSRLRLADTYEYWGQGTQVTVSSGGGGSGGGGSGGGGSGGGGSGGGGSGGGGSGGGGSGGGGSEVQLVESGGGLVQAGGSLRLSCAASGRTFSNYAMGWFRQAPGKERVLVADISSSGINTYVADAVKGRFTISRDNAKNTVYLQMNSLKPEDTAVYYCAASAWWYSQMARDNYRYWGQGTQVTVSS", "values": [{"measurement": "binding result", "setting": "[1]", "result": "no binding (tested: about 5e-7 M)"}, {"measurement": "binding result", "setting": "[2]", "result": "no binding (tested: about 5e-7 M)"}, {"measurement": "binding result", "setting": "[3]", "result": "no binding (tested: 5e-7 M)"}, {"measurement": "binding result", "setting": "[4]", "result": "no binding (tested: 5e-7 M)"}]}
{"binder": "VEGFBII024 (VHH, bivalent (heterodimeric) VHH; also called VEGFBII23B04-40GS-86H09) EVQLVESGGGLVQTGDSLRLSCEVSGRTFSSYSMGWFRQAQGKEREFVVAISKGGYKYDSVSLEGRFTISKDNAKNTVYLQINSLKPEDTAVYYCASSRAYGSSRLRLADTYEYWGQGTQVTVSSGGGGSGGGGSGGGGSGGGGSGGGGSGGGGSGGGGSGGGGSEVQLVESGGGLVQAGGSLRLSCTASGSAFKSYRMGWFRRTPGKEDEFVASISWTYGSTFYADSVKGRFTMSRDKAKNAGYLQMNSLKPEDTALYYCAAGAQSDRYNIRSYDYWGQGTQVTVSS", "values": [{"measurement": "binding result", "setting": "[1]", "result": "no binding (tested: about 5e-7 M)"}, {"measurement": "binding result", "setting": "[2]", "result": "no binding (tested: about 5e-7 M)"}, {"measurement": "binding result", "setting": "[3]", "result": "no binding (tested: 5e-7 M)"}, {"measurement": "binding result", "setting": "[4]", "result": "no binding (tested: 5e-7 M)"}]}
{"binder": "VEGFBII021 (VHH, bivalent (heterodimeric) VHH; also called VEGFBII23B04-40GS-5B05) EVQLVESGGGLVQTGDSLRLSCEVSGRTFSSYSMGWFRQAQGKEREFVVAISKGGYKYDSVSLEGRFTISKDNAKNTVYLQINSLKPEDTAVYYCASSRAYGSSRLRLADTYEYWGQGTQVTVSSGGGGSGGGGSGGGGSGGGGSGGGGSGGGGSGGGGSGGGGSEVQLVESGGGLVQPGGSLRLSCVASGIRFMSMAWYRQAPGKHRELVARISSGGTTAYVDSVKGRFTISRDNSKNTVYLQMNSLKAEDTAVYYCNTFSSRPNPWGAGTQVTVSS", "values": [{"measurement": "binding result", "setting": "[1]", "result": "no binding (tested: about 5e-7 M)"}, {"measurement": "binding result", "setting": "[2]", "result": "no binding (tested: about 5e-7 M)"}, {"measurement": "binding result", "setting": "[3]", "result": "no binding (tested: 5e-7 M)"}, {"measurement": "binding result", "setting": "[4]", "result": "no binding (tested: 5e-7 M)"}]}
{"binder": "VEGFBII022 (VHH, bivalent (heterodimeric) VHH; also called VEGFBII23B04-9GS-5B05) EVQLVESGGGLVQTGDSLRLSCEVSGRTFSSYSMGWFRQAQGKEREFVVAISKGGYKYDSVSLEGRFTISKDNAKNTVYLQINSLKPEDTAVYYCASSRAYGSSRLRLADTYEYWGQGTQVTVSSGGGGSGGGSEVQLVESGGGLVQPGGSLRLSCVASGIRFMSMAWYRQAPGKHRELVARISSGGTTAYVDSVKGRFTISRDNSKNTVYLQMNSLKAEDTAVYYCNTFSSRPNPWGAGTQVTVSS", "values": [{"measurement": "binding result", "setting": "[1]", "result": "no binding (tested: about 5e-7 M)"}, {"measurement": "binding result", "setting": "[2]", "result": "no binding (tested: about 5e-7 M)"}, {"measurement": "binding result", "setting": "[3]", "result": "no binding (tested: 5e-7 M)"}, {"measurement": "binding result", "setting": "[4]", "result": "no binding (tested: 5e-7 M)"}]}
